Measurements from article PMC5912465.

Molecular target: CCL8 (human chemokine panel) (human) (UniProt P80075)
Sequence (P80075 24-99): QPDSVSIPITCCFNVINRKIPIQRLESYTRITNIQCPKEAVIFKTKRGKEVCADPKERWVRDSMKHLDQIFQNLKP

Question: For “P672(1_44)-EVA1(29_94) hybrid evasin (from UniProt L7MC74;P0C8E7)”, which IC50 of neutralization of CCL8-induced THP-1 monocyte cell migration (EC80 dose of CCL8) is on record?
Answer: 48 nM
